Patent US20170269080A1 (VIRGINIA COMMONWEALTH UNIVERSITY, published 2017)

T1: PSGL-1 (sLe^x-capped, sialylated) on PSGL-1 CHO cells (UniProt Q14242 42-412, sLe^x-capped (alpha2,3-sialylated, alpha1,3-fucosylated glycan))
T1 construct: whole, on cells; also called sLe^x-modified PSGL-1; sialylated PSGL-1
T1 sequence: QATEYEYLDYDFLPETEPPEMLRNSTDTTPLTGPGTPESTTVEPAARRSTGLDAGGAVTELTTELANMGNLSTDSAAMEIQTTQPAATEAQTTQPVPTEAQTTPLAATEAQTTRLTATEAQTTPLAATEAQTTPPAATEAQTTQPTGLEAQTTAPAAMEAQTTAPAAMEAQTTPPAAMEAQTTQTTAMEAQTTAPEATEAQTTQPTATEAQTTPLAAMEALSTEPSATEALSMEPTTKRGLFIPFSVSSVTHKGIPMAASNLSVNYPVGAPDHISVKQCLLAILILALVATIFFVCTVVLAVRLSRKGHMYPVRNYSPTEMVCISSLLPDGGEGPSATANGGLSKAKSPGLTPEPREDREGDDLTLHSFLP

B1: GST-Asp14 (N-terminal glutathione-S-transferase-tagged A. phagocytophilum Asp14) (other)
chain: MIPLAPWKSISVVYMSGSDEYKEIIKQCIGSVKEVFGEGRFDDVVASIMKMQEKVLASSMQQDDTGTVGQIESGEGSGARLSDEQVQQLMNSIREEFKDDLRAIKRRILKLERAVYGANTPKES
notes: Coding region of asp14 (13.8 kDa) fused to GST; also called recombinant Asp14; not shown: glutathione-S-transferase (GST) tag, N-terminal, from vector pDest-15
B2: GST-OmpA (N-terminal glutathione-S-transferase-tagged A. phagocytophilum OmpA without signal sequence) (other)
chain: CGTLLPDSNVGVGRHDLGSHRSVAFAKKVEKVYFDIGKYDLKGPGKKVILELVEQLRQDDSMYLVVIGHADATGTEEYSLALGEKRANAVKQFIIGCDKSLAPRVTTQSRGKAEPEVLVYSTDAQEVEKANAQNRRAVIVVEFAHIPRSGVADMHAPVASSITSENSNASAEGEDMEASEFSSAIAN
notes: also called GST-tagged Aph OmpA; GST-ApOmpA; not shown: glutathione-S-transferase (GST) tag, N-terminal, from vector pDest-15

What was measured:
[1] = molecular target: the molecule itself; experiment: non-reducing SDS-PAGE and Western blot with anti-Asp14
[2] = molecular target: T1, PSGL-1 (sLe^x-capped, sialylated) on …; experiment: PSGL-1 CHO cells preincubated with GST-OmpA, Aph adherence counted (competition with the bacteria)

Binder	binding result [1]	reduction of Aph binding to sLe^x-modified PSGL-1 relative to GST alone [2]
B1	binds	–
B2	–	~60%
